The assay addresses human prominin-1 (CD133) (human) (UniProt O43490). In words: cell-based or functional assay.
UniProt O43490, sequence (O43490 20-865): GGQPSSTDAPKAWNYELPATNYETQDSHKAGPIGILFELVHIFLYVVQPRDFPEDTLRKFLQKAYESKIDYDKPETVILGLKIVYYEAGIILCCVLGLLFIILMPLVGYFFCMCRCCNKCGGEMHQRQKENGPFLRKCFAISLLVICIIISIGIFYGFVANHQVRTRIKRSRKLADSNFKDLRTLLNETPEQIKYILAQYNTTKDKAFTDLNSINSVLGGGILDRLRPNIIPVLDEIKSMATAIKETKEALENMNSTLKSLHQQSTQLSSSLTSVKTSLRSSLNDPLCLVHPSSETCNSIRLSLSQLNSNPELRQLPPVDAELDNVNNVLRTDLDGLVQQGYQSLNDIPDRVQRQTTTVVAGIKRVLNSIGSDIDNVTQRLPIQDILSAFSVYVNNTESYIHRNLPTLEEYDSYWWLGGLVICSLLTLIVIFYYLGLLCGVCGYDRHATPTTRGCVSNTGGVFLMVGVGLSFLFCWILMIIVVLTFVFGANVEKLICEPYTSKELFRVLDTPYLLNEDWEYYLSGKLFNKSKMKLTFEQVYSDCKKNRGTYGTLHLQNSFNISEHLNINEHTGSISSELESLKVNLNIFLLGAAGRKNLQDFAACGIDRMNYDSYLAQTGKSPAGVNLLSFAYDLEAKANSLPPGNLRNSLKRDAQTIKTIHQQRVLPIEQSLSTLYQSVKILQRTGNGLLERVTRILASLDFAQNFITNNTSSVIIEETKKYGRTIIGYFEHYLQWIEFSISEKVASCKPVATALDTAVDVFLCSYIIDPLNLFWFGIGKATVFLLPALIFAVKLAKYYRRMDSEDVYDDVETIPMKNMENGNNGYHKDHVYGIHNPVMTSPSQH

On to “AC133-vcMMAF (AC133 conjugated to maleimidocaproyl-valine-citrulline-p-aminobenzoyl-MMAF) (antibody)”, for which the IC50, cytotoxicity (resazurin) on HEK293 cells stably expressing CD133 was determined as 1 ng/mL; the IC50, cytotoxicity (rezasurin dye conversion) in Hep3B cells was found to be 0.35 nM; the IC50, cytotoxicity assay in Caco-2 cells was 3 ng/mL; the IC50, growth inhibition (3H-thymidine) of Caco-2 cells was < 1 ng/mL.
In turn, “AC133-mcMMAF (AC133 conjugated to maleimidocaproyl-MMAF) (antibody)” registered an IC50, cytotoxicity (resazurin) on HEK293 cells stably expressing CD133 of 1 ng/mL; an IC50, cytotoxicity (rezasurin dye conversion) in Hep3B cells of 6 nM; an IC50, growth inhibition (3H-thymidine) of Caco-2 cells of 100 ng/mL.
With “AC133-vcMMAE (AC133 conjugated to maleimidocaproyl-valine-citrulline-p-aminobenzoyl-MMAE) (antibody)”, the IC50, cytotoxicity (resazurin) on HEK293 cells stably expressing CD133 amounted to 6 ng/mL and the IC50, growth inhibition (3H-thymidine) of Caco-2 cells was 1000 ng/mL.

The record behind these values is patent US20100040637A1.
